Measurements as given in PMC6999705.

Legend:
MFG-E8-Ig (mouse) = MFG-E8-Ig (mouse) (UniProt P21956); assay: SEC
RGE-MFG-E8-Ig (mouse) = RGE-MFG-E8-Ig (mouse) (UniProt P21956); assay: SEC

Substance	stoichiometry N (MFG-E8-Ig (mouse))	stoichiometry N (RGE-MFG-E8-Ig (mouse))
MFG-E8-Ig (from UniProt P21956 23-148) (Fc fusion)	2	–
RGE-MFG-E8-Ig (from UniProt P21956 23-148) (Fc fusion)	–	2
